Test results published in patent publication US20190352420A1 (Boehringer Ingelheim, published 2019).
Positions count from the first letter of the chain named.

B1: C4 (antibody, human IgG1, kappa, L234A L235A, V domains shown)
VH: QVQLVQSGAEVKKPGDSVKVSCKASGYTFTTYWMHWVRQAPGQGLEWMGAIYPGLSDTTYNQKFKGKVTMTRDTSTSTVYMKLSSLRSEDTAVYYCARLLDYAMDYWGQGTLVTVSS
VL: DIQMTQSPSSLSASVGDRVTITCRASQDIRSYLNWHQQKPGKAPKLLIWYTSRLHSGVPSRFSGSGSGTDYTLTISSLQPEDFATYFCQQGETLPWTFGQGTKLEIKR
notes: Humanized monoclonal antibody; also called C04; inventive anti-CD73 antibody C4
B2: C6 (antibody, human IgG1, kappa, L234A L235A, V domains shown)
VH: B1 VH with L55N
VL: B1 VL with S31N, E92N
notes: Humanized monoclonal antibody; also called anti-CD73 antibody C6
B3: C5 (antibody, human IgG1, kappa, L234A L235A, V domains shown)
VH: B1 VH with L55N
VL: B1 VL with Q79E
notes: Humanized monoclonal antibody; also called anti-CD73 antibody C5

Biological target: T1, mouse CD73 (mouse, UniProt Q61503 29-551, limits assumed)
T1 construct: also called murine CD73
T1 sequence (looked up): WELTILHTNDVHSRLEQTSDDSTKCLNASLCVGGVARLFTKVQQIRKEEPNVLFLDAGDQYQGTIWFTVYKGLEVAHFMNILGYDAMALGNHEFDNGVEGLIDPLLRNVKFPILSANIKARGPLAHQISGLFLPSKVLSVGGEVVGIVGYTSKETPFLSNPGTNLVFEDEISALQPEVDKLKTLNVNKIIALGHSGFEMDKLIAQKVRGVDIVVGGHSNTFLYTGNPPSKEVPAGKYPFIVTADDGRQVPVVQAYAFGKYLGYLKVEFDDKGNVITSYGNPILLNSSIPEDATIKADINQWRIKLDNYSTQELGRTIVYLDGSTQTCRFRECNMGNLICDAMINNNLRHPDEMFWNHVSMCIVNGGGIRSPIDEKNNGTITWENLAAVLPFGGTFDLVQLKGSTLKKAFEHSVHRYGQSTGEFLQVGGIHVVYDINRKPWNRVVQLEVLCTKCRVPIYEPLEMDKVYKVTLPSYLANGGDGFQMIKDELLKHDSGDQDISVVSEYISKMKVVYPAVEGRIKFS
Test: SPR, mouse CD73 compared with human CD73 (reference)

Row | Binder | fold higher binding to human CD73 than to mouse CD73 [fold]
1 | B1 | 120
2 | B2 | 58
3 | B3 | 163

Biological target: T2, recombinant human CD73 protein (human, UniProt P21589 27-549, limits assumed)
T2 sequence (looked up): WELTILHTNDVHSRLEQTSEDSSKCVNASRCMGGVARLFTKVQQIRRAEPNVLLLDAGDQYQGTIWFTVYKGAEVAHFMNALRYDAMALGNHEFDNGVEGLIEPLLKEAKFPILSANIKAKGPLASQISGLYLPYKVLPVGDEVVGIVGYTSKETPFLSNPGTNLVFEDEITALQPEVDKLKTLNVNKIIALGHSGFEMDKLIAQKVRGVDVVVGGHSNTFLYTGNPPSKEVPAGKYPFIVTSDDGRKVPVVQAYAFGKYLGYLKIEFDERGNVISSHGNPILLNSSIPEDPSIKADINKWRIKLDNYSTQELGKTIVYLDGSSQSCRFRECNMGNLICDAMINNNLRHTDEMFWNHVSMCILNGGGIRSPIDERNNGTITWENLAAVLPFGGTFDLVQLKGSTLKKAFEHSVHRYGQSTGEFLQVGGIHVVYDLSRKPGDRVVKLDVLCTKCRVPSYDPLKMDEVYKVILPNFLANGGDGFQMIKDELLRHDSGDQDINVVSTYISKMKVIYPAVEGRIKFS
Test: cell-based or functional assay

Row | Binder | IC90 of inhibition of CD73 enzymatic function (luciferase-based assay) [nM]
4 | B1 | 0.24
5 | B2 | 0.24
6 | B3 | 0.29

Biological target: T3, cell-bound CD73 (human, UniProt P21589 27-549)
T3 sequence (looked up): T2 sequence (looked up)
Test: cell-based or functional assay

Row | Binder | IFNγ release [fold change over control], Donor A, 1 nM antibody [fold] | IFNγ release [fold change over control], Donor B, 1 nM antibody [fold] | IFNγ release [fold change over control], Donor C, 1 nM antibody [fold] | IFNγ release [fold change over control], Donor D, 1 nM antibody [fold] | IFNγ release [fold change over control], Donor E, 1 nM antibody [fold] | IFNγ release [fold change over control], Donor F, 1 nM antibody [fold]
7 | B1 | 20.2 | 8.7 | 35.2 | 13.7 | 14.1 | 7.1
8 | B2 | 24.3 | 12.9 | 55.5 | 25.8 | 14 | 10.3
9 | B3 | 24.5 | 11.3 | 59.3 | 22.9 | 12.4 | 5.8

Biological target: T3, cell-bound CD73
Test: cell-based or functional assay
Remark: another data set of the same source

Row | Binder | % of max. adenosine inhibition, washed Colo-201 cells [%]
10 | B1 | 82
11 | B2 | 81
12 | B3 | 82

Biological target: T3, cell-bound CD73
Test: cell-based or functional assay
Remark: another data set of the same source

Row | Binder | CD73 surface reduction [%] on Colo201 cells, 24 h, flow cytometry [%]
13 | B1 | 15
14 | B2 | 19
15 | B3 | 19

Biological target: T3, cell-bound CD73
Test: cell-based or functional assay
Remark: another data set of the same source

Row | Binder | CD8 T cell proliferation [% of control], Donor A, 1 nM antibody [%] | CD8 T cell proliferation [% of control], Donor B, 1 nM antibody [%] | CD8 T cell proliferation [% of control], Donor C, 1 nM antibody [%] | CD8 T cell proliferation [% of control], Donor D, 1 nM antibody [%] | CD8 T cell proliferation [% of control], Donor E, 1 nM antibody [%] | CD8 T cell proliferation [% of control], Donor F, 1 nM antibody [%]
16 | B1 | 104 | 70.3 | 111 | 98.5 | 100 | 92.6
17 | B2 | 102 | 65.4 | 88.3 | 99.6 | 100 | 91.1
18 | B3 | 103 | 80.3 | 101 | 99.3 | 100 | 86

Biological target: T4, human CD73-His (human, UniProt P21589 27-549)
T4 construct: extracellular domain; The SPR analyte is only called 'human CD73-His' (non-covalent dimeric antigen); also called HuCD73 His tagged; HuCD73his20170303
T4 sequence: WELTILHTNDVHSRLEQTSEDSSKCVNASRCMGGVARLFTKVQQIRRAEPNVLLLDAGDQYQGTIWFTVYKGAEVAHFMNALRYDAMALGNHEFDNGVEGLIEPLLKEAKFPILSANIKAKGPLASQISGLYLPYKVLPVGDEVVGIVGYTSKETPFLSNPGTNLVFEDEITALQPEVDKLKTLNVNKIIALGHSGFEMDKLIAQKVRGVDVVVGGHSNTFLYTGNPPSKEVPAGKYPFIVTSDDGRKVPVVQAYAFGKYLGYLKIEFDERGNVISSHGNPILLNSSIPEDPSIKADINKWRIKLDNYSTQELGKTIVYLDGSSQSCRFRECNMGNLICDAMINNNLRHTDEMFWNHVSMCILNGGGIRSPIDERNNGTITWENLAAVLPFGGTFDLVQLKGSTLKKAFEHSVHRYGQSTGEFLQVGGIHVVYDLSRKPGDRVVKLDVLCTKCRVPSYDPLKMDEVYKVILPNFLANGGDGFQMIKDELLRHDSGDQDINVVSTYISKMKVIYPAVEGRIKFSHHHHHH
Test: SPR (ProteOn XPR36), antibody captured on Protein A/G, dimeric human CD73-His as analyte, avidity format, 1:1 Langmuir fit
Procedure: For the avidity format, the experiment was performed on a Bio-Rad ProteOn XPR36 instrument. Antibodies were captured via Protein A/G and the non-covalent dimeric antigens were flowed over the captured surface. The running buffer for this experiment and all dilutions were prepared in PBS-T-EDTA. The GLM sensor chip was normalized and pre-conditioned as per the manufacturer's recommendations. The sensor chip was activated with an equal mixture of EDC/s-NHS in the horizontal direction for 300 s at a flow rate of 30 μL/min and immobilized with recombinant Protein A/G (50 μg/ml in 10 mM acetate pH 4.5) in the horizontal direction for 300 s at a flow rate of 30 μL/min resulting in about 5000 RU of Protein A/G on the surface. The sensor chip was deactivated with 1M ethanolamine-HCl in the horizontal direction for 300 s at a flow rate of 30 μL/min. The sensor chip was regenerated with 18 s of 0.85% phosphoric acid at a flow rate of 100 μL/min 2 times horizontally and 2 times vertically.
About 300 RU of antibody was captured on the Protein A/G surface vertically for 60 s at a flow rate of 30 μL/min. The capture surface was stabilized by injecting PBS-T-EDTA for 60 s at a flowrate of 100 μL/min horizontally. The analyte (human CD73-His) was injected horizontally over the captured antibody for 600 s at a flow rate of 30 μL/min with a dissociation of 1200 s. The concentrations of human CD73-His were 0 nM, 3.125 nM, 6.25 nM, 12.5 nM, 25 nM and 50 nM. The surface was regenerated by injecting 0.85% phosphoric acid for 18 s at a flow rate of 100 μL/min one time horizontally and one time vertically.
The interspot (interactions with sensor surface) and blank (PBS-T-EDTA or 0 nM analyte) were subtracted from the raw data.

Row | Binder | Kd [nM]
19 | B1 | 0.074
20 | B2 | 0.096
21 | B3 | 0.049

Biological target: T5, non-cell-bound CD73 (human, UniProt P21589 27-549, limits assumed)
T5 sequence (looked up): T2 sequence (looked up)
Test: cell-based or functional assay

Row | Binder | % of max. adenosine inhibition, Colo-201 culture supernatant [%]
22 | B1 | 81
23 | B2 | 78
24 | B3 | 80

Biological target: T3, cell-bound CD73
Test: cell-based or functional assay
Remark: another data set of the same source

Row | Binder | Max. adenosine inhibition [%] in Colo201 cells [%]
25 | B1 | 88
26 | B2 | 88
27 | B3 | 87
